Reference: US20220025010A1 (ANTAG THERAPEUTICS, published 2022)
*1 amine or outer side, *2 acyl side, *3 side chain or, on linkers, in order; H or OH if unused. Where no end group is shown, it is not given here. Side-chain parts run from the residue outwards. [ ]: non-standard residue; d: D form. The star is where a group is joined. C18 diacid = O=C(O)CCCCCCCCCCCCCCCCC(=O)*; C16 diacid = O=C(O)CCCCCCCCCCCCCCC(=O)*; γGlu = O=C(O)[C@H](CCC(=O)[*:2])N[*:1]; pGlu = O=C1CC[C@@H](C(=O)O)N1; AEEA = NCCOCCOCC(=O)O

B1: AT353 (peptide)
peptide: FISDYSIAMDKIK(C16 diacid)QQDFVNWLLAQK-NH2
modifications: N-terminus assumed
SMILES: CC[C@H](C)[C@H](NC(=O)[C@H](CO)NC(=O)[C@H](Cc1ccc(O)cc1)NC(=O)[C@H](CC(=O)O)NC(=O)[C@H](CO)NC(=O)[C@@H](NC(=O)[C@@H](N)Cc1ccccc1)[C@@H](C)CC)C(=O)N[C@@H](C)C(=O)N[C@@H](CCSC)C(=O)N[C@@H](CC(=O)O)C(=O)N[C@@H](CCCCN)C(=O)N[C@H](C(=O)N[C@@H](CCCCNC(=O)CCCCCCCCCCCCCCC(=O)O)C(=O)N[C@@H](CCC(N)=O)C(=O)N[C@@H](CCC(N)=O)C(=O)N[C@@H](CC(=O)O)C(=O)N[C@@H](Cc1ccccc1)C(=O)N[C@H](C(=O)N[C@@H](CC(N)=O)C(=O)N[C@@H](Cc1c[nH]c2ccccc12)C(=O)N[C@@H](CC(C)C)C(=O)N[C@@H](CC(C)C)C(=O)N[C@@H](C)C(=O)N[C@@H](CCC(N)=O)C(=O)N[C@@H](CCCCN)C(N)=O)C(C)C)[C@@H](C)CC
B2: AT393 (peptide)
peptide: SGTFISDYSIAMDRIK(C18 diacid)QQDFVNWLLAQR-NH2
modifications: N-terminus assumed
SMILES: CC[C@H](C)[C@H](NC(=O)[C@H](CO)NC(=O)[C@H](Cc1ccc(O)cc1)NC(=O)[C@H](CC(=O)O)NC(=O)[C@H](CO)NC(=O)[C@@H](NC(=O)[C@H](Cc1ccccc1)NC(=O)[C@@H](NC(=O)CNC(=O)[C@@H](N)CO)[C@@H](C)O)[C@@H](C)CC)C(=O)N[C@@H](C)C(=O)N[C@@H](CCSC)C(=O)N[C@@H](CC(=O)O)C(=O)N[C@@H](CCCNC(=N)N)C(=O)N[C@H](C(=O)N[C@@H](CCCCNC(=O)CCCCCCCCCCCCCCCCC(=O)O)C(=O)N[C@@H](CCC(N)=O)C(=O)N[C@@H](CCC(N)=O)C(=O)N[C@@H](CC(=O)O)C(=O)N[C@@H](Cc1ccccc1)C(=O)N[C@H](C(=O)N[C@@H](CC(N)=O)C(=O)N[C@@H](Cc1c[nH]c2ccccc12)C(=O)N[C@@H](CC(C)C)C(=O)N[C@@H](CC(C)C)C(=O)N[C@@H](C)C(=O)N[C@@H](CCC(N)=O)C(=O)N[C@@H](CCCNC(=N)N)C(N)=O)C(C)C)[C@@H](C)CC
B3: AT357 (peptide)
peptide: YSIAMDKIK(C16 diacid)QQDFVNWLLAQK-NH2
modifications: N-terminus assumed
SMILES: CC[C@H](C)[C@H](NC(=O)[C@H](CO)NC(=O)[C@@H](N)Cc1ccc(O)cc1)C(=O)N[C@@H](C)C(=O)N[C@@H](CCSC)C(=O)N[C@@H](CC(=O)O)C(=O)N[C@@H](CCCCN)C(=O)N[C@H](C(=O)N[C@@H](CCCCNC(=O)CCCCCCCCCCCCCCC(=O)O)C(=O)N[C@@H](CCC(N)=O)C(=O)N[C@@H](CCC(N)=O)C(=O)N[C@@H](CC(=O)O)C(=O)N[C@@H](Cc1ccccc1)C(=O)N[C@H](C(=O)N[C@@H](CC(N)=O)C(=O)N[C@@H](Cc1c[nH]c2ccccc12)C(=O)N[C@@H](CC(C)C)C(=O)N[C@@H](CC(C)C)C(=O)N[C@@H](C)C(=O)N[C@@H](CCC(N)=O)C(=O)N[C@@H](CCCCN)C(N)=O)C(C)C)[C@@H](C)CC
B4: AT277 (peptide)
peptide: SGTFISDYSIAMDRIK([AEEA-AEEA-γGlu-C16 diacid])QQDFVNWLLAQR-OH
modifications: N-terminus assumed
SMILES: CC[C@H](C)[C@H](NC(=O)[C@H](CO)NC(=O)[C@H](Cc1ccc(O)cc1)NC(=O)[C@H](CC(=O)O)NC(=O)[C@H](CO)NC(=O)[C@@H](NC(=O)[C@H](Cc1ccccc1)NC(=O)[C@@H](NC(=O)CNC(=O)[C@@H](N)CO)[C@@H](C)O)[C@@H](C)CC)C(=O)N[C@@H](C)C(=O)N[C@@H](CCSC)C(=O)N[C@@H](CC(=O)O)C(=O)N[C@@H](CCCNC(=N)N)C(=O)N[C@H](C(=O)N[C@@H](CCCCNC(=O)COCCOCCNC(=O)COCCOCCNC(=O)CC[C@H](NC(=O)CCCCCCCCCCCCCCC(=O)O)C(=O)O)C(=O)N[C@@H](CCC(N)=O)C(=O)N[C@@H](CCC(N)=O)C(=O)N[C@@H](CC(=O)O)C(=O)N[C@@H](Cc1ccccc1)C(=O)N[C@H](C(=O)N[C@@H](CC(N)=O)C(=O)N[C@@H](Cc1c[nH]c2ccccc12)C(=O)N[C@@H](CC(C)C)C(=O)N[C@@H](CC(C)C)C(=O)N[C@@H](C)C(=O)N[C@@H](CCC(N)=O)C(=O)N[C@@H](CCCNC(=N)N)C(=O)O)C(C)C)[C@@H](C)CC
B5: AT355 (peptide)
peptide: SDYSIAMDKIK(C16 diacid)QQDFVNWLLAQK-NH2
modifications: N-terminus assumed
SMILES: CC[C@H](C)[C@H](NC(=O)[C@H](CO)NC(=O)[C@H](Cc1ccc(O)cc1)NC(=O)[C@H](CC(=O)O)NC(=O)[C@@H](N)CO)C(=O)N[C@@H](C)C(=O)N[C@@H](CCSC)C(=O)N[C@@H](CC(=O)O)C(=O)N[C@@H](CCCCN)C(=O)N[C@H](C(=O)N[C@@H](CCCCNC(=O)CCCCCCCCCCCCCCC(=O)O)C(=O)N[C@@H](CCC(N)=O)C(=O)N[C@@H](CCC(N)=O)C(=O)N[C@@H](CC(=O)O)C(=O)N[C@@H](Cc1ccccc1)C(=O)N[C@H](C(=O)N[C@@H](CC(N)=O)C(=O)N[C@@H](Cc1c[nH]c2ccccc12)C(=O)N[C@@H](CC(C)C)C(=O)N[C@@H](CC(C)C)C(=O)N[C@@H](C)C(=O)N[C@@H](CCC(N)=O)C(=O)N[C@@H](CCCCN)C(N)=O)C(C)C)[C@@H](C)CC
B6: AT354 (peptide)
peptide: ISDYSIAMDKIK(C16 diacid)QQDFVNWLLAQK-NH2
modifications: N-terminus assumed
SMILES: CC[C@H](C)[C@H](N)C(=O)N[C@@H](CO)C(=O)N[C@@H](CC(=O)O)C(=O)N[C@@H](Cc1ccc(O)cc1)C(=O)N[C@@H](CO)C(=O)N[C@H](C(=O)N[C@@H](C)C(=O)N[C@@H](CCSC)C(=O)N[C@@H](CC(=O)O)C(=O)N[C@@H](CCCCN)C(=O)N[C@H](C(=O)N[C@@H](CCCCNC(=O)CCCCCCCCCCCCCCC(=O)O)C(=O)N[C@@H](CCC(N)=O)C(=O)N[C@@H](CCC(N)=O)C(=O)N[C@@H](CC(=O)O)C(=O)N[C@@H](Cc1ccccc1)C(=O)N[C@H](C(=O)N[C@@H](CC(N)=O)C(=O)N[C@@H](Cc1c[nH]c2ccccc12)C(=O)N[C@@H](CC(C)C)C(=O)N[C@@H](CC(C)C)C(=O)N[C@@H](C)C(=O)N[C@@H](CCC(N)=O)C(=O)N[C@@H](CCCCN)C(N)=O)C(C)C)[C@@H](C)CC)[C@@H](C)CC

Target: T1, human GIP receptor (human, UniProt P48546 22-466)
T1 sequence (looked up): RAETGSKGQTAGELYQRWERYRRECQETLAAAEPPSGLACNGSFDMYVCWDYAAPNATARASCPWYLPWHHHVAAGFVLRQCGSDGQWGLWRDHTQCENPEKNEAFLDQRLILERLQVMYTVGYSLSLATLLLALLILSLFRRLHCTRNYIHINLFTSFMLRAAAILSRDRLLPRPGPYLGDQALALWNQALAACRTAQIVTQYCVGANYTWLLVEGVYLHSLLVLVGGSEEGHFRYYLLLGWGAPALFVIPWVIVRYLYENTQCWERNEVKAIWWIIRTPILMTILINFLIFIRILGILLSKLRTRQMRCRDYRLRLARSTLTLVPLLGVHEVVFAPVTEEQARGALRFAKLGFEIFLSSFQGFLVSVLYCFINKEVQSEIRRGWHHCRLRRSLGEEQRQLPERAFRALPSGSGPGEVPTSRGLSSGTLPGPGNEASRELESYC
Assay: cell-based or functional assay

Binder	CisBio cAMP agonism % Efficacy [%]	CisBio cAMP antagonism % inhib [%]	CisBio cAMP antagonism IC50 [nM]	CisBio cAMP antagonism pIC50	DiscoveRx cAMP antagonism % inhib [%]	DiscoveRx cAMP antagonism IC50 [nM]	DiscoveRx cAMP antagonism log IC50 [log M]	DiscoveRx cAMP agonism Emax
B1	0	90	25.1	7.6	–	–	–	–
[pGlu]GTFISDYSIAMDRIK(C16 diacid)QQDFVNWLLAQR-NH2 [AT390]	4	81	15.9	7.8	100	1	-9.1	–
B2	6	78	33.5	7.5	100	1	-8.9	–
B3	0	40	178	6.8	–	–	–	–
B4	8	84	31.6	7.5	–	16	-7.8	9
[pGlu]GTFISDYSIAMDRIK([AEEA-AEEA-AEEA-γGlu-C16 diacid])QQDFVNWLLAQR-NH2 [AT380]	8	82	85.8	7.1	100	7	-8.1	–
B5	0	65	233	6.6	–	–	–	–
B6	0	91	108	7	–	–	–	–

Target: T1, human GIP receptor
Assay: cell-based or functional assay
Remark: another data set of the same source

Binder	cAMP antagonism % inhib [%]	cAMP antagonism IC50 [nM]	cAMP antagonism log IC50 [log M]
B1	100	9	-8.1
B3	100	528	-6.3
B5	100	53	-7.3
B6	100	10	-8

Target: T1, human GIP receptor
Assay: cell-based or functional assay
Remark: another data set of the same source

Binder	CisBio cAMP antagonism % inhib [%]	CisBio cAMP antagonism IC50 [nM]	cAMP antagonism % inhib [%]	cAMP antagonism IC50 [nM]
B1	90	25.1	100	9
B2	78	33.5	100	1
B4	84	31.6	–	16

Target: GLP1 receptor (UniProt P43220 24-463, limits assumed)
Assay: cell-based or functional assay

Binder	cAMP antagonism % inhib [%]	cAMP antagonism IC50 [nM]	cAMP antagonism index	cAMP antagonism log IC50 [log M]
B1	43	169	44	-6.8
B4	68	6100	561	-5.2

Target: T1, human GIP receptor
Assay: cell-based or functional assay
Remark: another data set of the same source

Binder	cAMP antagonism IC50 (finer than Table 1B) [nM]
[pGlu]GTFISDYSIAMDRIK(C16 diacid)QQDFVNWLLAQR-NH2 [AT390]	0.8
[pGlu]GTFISDYSIAMDRIK([AEEA-AEEA-AEEA-γGlu-C16 diacid])QQDFVNWLLAQR-NH2 [AT380]	7.3
